Article PMC11881561 (Antimicrobial Agents and Chemotherapy, 2025)

What was measured:
Assay in all cases: purified protein, by the assay type
Details in all cases: pH 7.4
[1] = system: CC(C)(O/N=C(\C(=O)N[C@@H]1C(=O)N2C(C(=O)[O-])=C(C[n+]3ccccc3)CS[C@H]12)c1csc(N)n1)C(=O)O
[2] = system: CO/N=C(\C(=O)N[C@@H]1C(=O)N2C(C(=O)[O-])=C(C[N+]3(C)CCCC3)CS[C@H]12)c1csc(N)n1
[3] = system: Nc1nc(/C(=C/CC(=O)O)C(=O)N[C@@H]2C(=O)N3C(C(=O)O)=CCS[C@H]23)cs1

Substance: KPC-2 WT (Klebsiella pneumoniae)
- kcat/Km [1]: 730 ± 130 M⁻¹ s⁻¹
- kcat/Km [2]: 130000 ± 4000 M⁻¹ s⁻¹
- kcat/Km [3]: 2200 ± 240 M⁻¹ s⁻¹
